In publication doi:10.1101/2020.07.24.212647 (bioRxiv, 2020):

Target: the molecule itself
Assay: crystal structure

B1: M. tuberculosis E2b catalytic domain (MtE2b_CD) (domain or fragment)
chain: PDVRPVHGVHARMAEKMTLSHKEIPTAKASVEVICAELLRLRDRFVSAAPEITPFALTLRLLVIALKHNVILNSTWVDSGEGPQVHVHRGVHLGFGAATERGLLVPVVTDAQDKNTRELASRVAELITGAREGTLTPAELRGSTFTVSNFGALGVDDGVPVINHPEAAILGLGAIKPRPVVVGGEVVARPTMTLTCVFDHRVVDGAQVAQFMCELRDLIESPETALLDL
stoichiometry N: 24
